The values that follow are results of earlier work, collected in paper PMC8592953.

Series [1] has as its target RAGE (soluble) soluble (Homo sapiens) (UniProt Q15109).
Series [2] has the same target. This is another data set of the same source.

Read-outs that look alike come from different tables or passages of the source.

Chain of UniProt Q15109 (Q15109 23-342): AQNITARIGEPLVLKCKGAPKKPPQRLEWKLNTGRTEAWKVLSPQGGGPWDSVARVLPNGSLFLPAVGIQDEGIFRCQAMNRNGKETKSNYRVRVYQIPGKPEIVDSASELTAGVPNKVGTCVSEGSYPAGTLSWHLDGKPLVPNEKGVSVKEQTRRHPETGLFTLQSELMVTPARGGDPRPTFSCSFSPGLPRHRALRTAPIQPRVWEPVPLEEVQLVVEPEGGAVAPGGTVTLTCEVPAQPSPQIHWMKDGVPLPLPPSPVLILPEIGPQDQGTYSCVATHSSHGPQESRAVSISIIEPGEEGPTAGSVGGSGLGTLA

A word on the Kd: it is a measure of binding affinity in units of concentration. As for “AGE-modified bovine serum albumin (BSA-AGE) (from UniProt P02769)”, in series [1], the Kd was 1000 nM.
For “glyoxylic acid-glycated bovine serum albumin (from UniProt P02769)”, in series [2], the Kd was 100 nM.
